These results are taken from patent publication US20250090680A1.

Assay [1] has as its target recombinant hGPC3-His (human) (UniProt P51654). The experiment in a line: Biacore SPR, antibody captured, hGPC3-His analyte, 1:1 model.
In assay [2] the target is recombinant human GPC3 protein (R&D Systems) (human) (UniProt P51654). The experiment in a line: binding ELISA on plate-coated recombinant hGPC3, detection with goat anti-human Fc secondary antibody and TMB.
For assay [3], the target named is recombinant hGPC3-His (human) (UniProt P51654). The experiment in a line: Biacore SPR, antibody captured, hGPC3-His analyte, 1:1 model; reference ARD-103 IgG.
The target of assay [4] is recombinant human GPC3 protein (R&D Systems) (human) (UniProt P51654). The experiment in a line: ELISA, plate-coated recombinant hGPC3, IgG detected with anti-human Fc.
Assay [5] has the same target. Kind of assay: Octet (BLI) off-rate ranking of scFv.

Chain of UniProt P51654 (P51654 25-559): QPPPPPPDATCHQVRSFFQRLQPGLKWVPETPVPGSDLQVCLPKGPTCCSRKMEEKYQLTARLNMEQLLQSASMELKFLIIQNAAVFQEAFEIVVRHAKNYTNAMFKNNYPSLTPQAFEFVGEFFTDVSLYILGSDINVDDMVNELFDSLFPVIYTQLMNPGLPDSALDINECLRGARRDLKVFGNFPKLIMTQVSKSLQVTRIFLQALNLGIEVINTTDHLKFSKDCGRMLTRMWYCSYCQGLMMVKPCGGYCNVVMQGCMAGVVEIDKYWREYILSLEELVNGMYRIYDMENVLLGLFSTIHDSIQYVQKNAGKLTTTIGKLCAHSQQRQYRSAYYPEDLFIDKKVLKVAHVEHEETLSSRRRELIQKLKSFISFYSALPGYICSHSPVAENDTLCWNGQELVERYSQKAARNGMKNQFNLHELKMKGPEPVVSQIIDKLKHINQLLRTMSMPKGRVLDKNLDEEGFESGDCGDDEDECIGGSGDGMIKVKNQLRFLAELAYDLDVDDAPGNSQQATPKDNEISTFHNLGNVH

B1: ARD-103 antibody (IgG) (antibody, V domains shown)
VH: QVQLVESGAEVKKPGASVKVSCKASGYTFTDYEMHWVRQAPGQGLEWMGALDPKTGDTAYSQKFKGRVTLTADKSTSTAYMELSSLTSEDTAVYYCTRFYSYTYWGQGTLVTVSS
VL: DVVMTQSPLSLPVTPGEPASISCRSSQSLVHSNGNTYLHWYLQKPGQSPQLLIYKVSNRFSGVPDRFSGSGSGTDFTLKISRVEAEDVGVYYCSQNTHVPPTFGQGTKLEIKR
With B1, in assay [1], the Kd is 3850 pM, the off-rate (koff) worked out at 0.000185 s⁻¹ and the kon stood at 48100 M⁻¹ s⁻¹. Besides, the EC50 in assay [2] turned out to be 110 pM.

B2: P6-D11 IgG variant of ARD-103 (antibody, V domains shown)
VH: QVQLVQSGAEVKKPGASVKVSCKASGYTFTDYEMHWVRQAPGQGLEWMGALDPKTGDEAYSQKFKGRVTLTADKSTSTAYMELSSLTSEDTAVYYCTRFYSYTYWGQGTLVTVSS
VL: DVVMTQSPLSLPVTPGEPASISCRSEQSLVHSNGNTYLHWYLQKPGQSPQLLIYKVSNRFSGVPDRFSGSGSGTDFTLKISRVEAEDVGVYYCVQNGLFPPTFGQGTKLEIKR
Consider B2, for which the fold change of ka against ARD-103 in assay [3] is 2 fold. Also, in assay [4], the EC50 was found to be 100 pM. Besides, in assay [1], the Kd came out at 3020 pM, the fold of ka against ARD-103 came out at 2 fold, the dissociation rate constant (koff) is 0.000324 s⁻¹ and the kon worked out at 107000 M⁻¹ s⁻¹. Also, the EC50 in assay [2] worked out at 94 pM.

B3: P1-G5 scFv clone (scFv, part only; not given: linker, domain order, tags, V domains shown, not shown: another chain or arm of the molecule; large carriers; small tags and cut ends)
VH: QVQLVESGAEVKKPGASVKVSCKASGYTFTDYEMHWVRQAPGQGLEWMGAIDPKTGDTAYSQKFKGRVTLTADKSTSTAYMELSSLTSEDTAVYYCTRFYSYTYWGQGTLVTVSS
VL: DVVMTQSPLSLPVTPGEPASISCRSSQSLVHSNGNTYLQWYLQKPGQSPQLLIYKVSNRFSGVPDRFSGSGSGTDFTLKISRVEAEDVGVYYCSQVTHVPPTFGQGTKLEIK
With B3, the koff in assay [5] worked out at 0.000197 s⁻¹.

B4: P1-B9 IgG variant of ARD-103 (antibody, V domains shown)
VH: QVQLVESGAEVKKPGASVKVSCKASGYTFTDYEMHWVRQAPGQGLEWMGALDPKTGDTALSQKFKGRVTLTADKSTSTAYMELSSLTSEDTAVYYCTRFYSYTYWGQGTLVTVSS
VL: DVVMTQSPLSLPVTPGEPASISCRSSQSLVHSNGNTYLQWYLQKPGQSPQLLIYKVSNRFSGVPDRFSGSGSGTDFTLKISRVEAEDVGVYYCGQVTHVPPTFGQGTKLEIKR
For the molecule B4, the EC50 in assay [4] turned out to be 100 pM. For the same molecule, in assay [1], the Kd stood at 3330 pM, the off-rate (koff) was determined as 0.00026 s⁻¹ and the kon came to 78000 M⁻¹ s⁻¹. For the same molecule, the EC50 in assay [2] was determined as 95 pM.

B5: P1-A1 IgG variant of ARD-103 (antibody, V domains shown)
VH: QVQLVESGAEVKKPGASVKVSCKASGYTFTDYEMHWVRQAPGQGLEWMGALDPKTGDTAYSQKFQGRVTLTADKSTSTAYMELSSLTSEDTAVYYCTRFYSYTYWGQGTLVTVSS
VL: DVVMTQSPLSLPVTPGEPASISCRSSQSLVRSNGNTYLHWYLQKPGQSPQLLIYKVSNRFSGVPDRFSGSGSGTDFTLKISRVEAEDVGVYYCVQNTHVPPTFGQGTKLEIKR
Consider B5, for which, in assay [1], the Kd worked out at 1560 pM, the off-rate (koff) is 0.000172 s⁻¹ and the kon amounted to 110000 M⁻¹ s⁻¹.

B6: P1-E6 scFv clone (scFv, part only; not given: linker, domain order, tags, V domains shown, not shown: another chain or arm of the molecule; large carriers; small tags and cut ends)
VH: QVQLVESGAEVKKPGASVKVSCKASGYTFTDYEMHWVRQAPGQGLEWMGALDPKTGDTALSQKFKGRVTLTADKSTSTAYMELSSLTSEDTAVYYCTRFYSYTYWGQGTLVTVSS
VL: DVVMTQSPLSLPVTPGEPASISCRSSSSLVHSNGNTYLHWYLQKPGQSPQLLIYKVSNRFSGVPDRFSGSGSGTDFTLKISRVEAEDVGVYYCLQNGIVPPTFGQGTKLEIK
As for B6, in assay [5], the koff amounted to 0.00048 s⁻¹.

B7: P1-E6 IgG variant of ARD-103 (antibody, V domains shown)
VH: QVQLVESGAEVKKPGASVKVSCKASGYTFTDYEMHWVRQAPGQGLEWMGALDPKTGDTALSQKFKGRVTLTADKSTSTAYMELSSLTSEDTAVYYCTRFYSYTYWGQGTLVTVSS
VL: DVVMTQSPLSLPVTPGEPASISCRSSSSLVHSNGNTYLHWYLQKPGQSPQLLIYKVSNRFSGVPDRFSGSGSGTDFTLKISRVEAEDVGVYYCLQNGIVPPTFGQGTKLEIKR
With B7, in assay [1], the Kd was found to be 3950 pM, the koff was 0.000299 s⁻¹ and the kon was found to be 75600 M⁻¹ s⁻¹.

B8: P1-A1 scFv clone (scFv, part only; not given: linker, domain order, tags, V domains shown, not shown: another chain or arm of the molecule; large carriers; small tags and cut ends)
VH: QVQLVESGAEVKKPGASVKVSCKASGYTFTDYEMHWVRQAPGQGLEWMGALDPKTGDTAYSQKFQGRVTLTADKSTSTAYMELSSLTSEDTAVYYCTRFYSYTYWGQGTLVTVSS
VL: DVVMTQSPLSLPVTPGEPASISCRSSQSLVRSNGNTYLHWYLQKPGQSPQLLIYKVSNRFSGVPDRFSGSGSGTDFTLKISRVEAEDVGVYYCVQNTHVPPTFGQGTKLEIK
On to B8, for which the koff in assay [5] amounted to 0.0003 s⁻¹.

B9: P1-G5 IgG variant of ARD-103 (antibody, V domains shown)
VH: QVQLVESGAEVKKPGASVKVSCKASGYTFTDYEMHWVRQAPGQGLEWMGAIDPKTGDTAYSQKFKGRVTLTADKSTSTAYMELSSLTSEDTAVYYCTRFYSYTYWGQGTLVTVSS
VL: DVVMTQSPLSLPVTPGEPASISCRSSQSLVHSNGNTYLQWYLQKPGQSPQLLIYKVSNRFSGVPDRFSGSGSGTDFTLKISRVEAEDVGVYYCSQVTHVPPTFGQGTKLEIKR
On to B9, for which, in assay [4], the EC50 turned out to be 100 pM. For the same molecule, in assay [1], the Kd was determined as 4150 pM, the koff amounted to 0.000326 s⁻¹ and the kon is 78500 M⁻¹ s⁻¹. In addition, the 50% effective concentration (EC50) in assay [2] is 95 pM.

B10: P3-F7 IgG variant of ARD-103 (antibody, V domains shown)
VH: QVQLVESGAEVKKPGASVKVSCKASGYTFTDYEMHWVRQAPGQGLEWMGALDPKTGDTAYSQKFKGRVTLTADKSTSTAYMELSSLTSEDTAVYYCTRFYSYTYWGQGTLVTVSS
VL: DVVMTQSPLSLPVTPGEPASISCRSSQSLVHSNGNTYLQWYLQKPGQSPQLLIYKVSNRFSGVPDRFSGSGSGTDFTLKISRVEAEDVGVYYCVQVTHVPPTFGQGTKLEIKR
B10: in assay [4], the EC50 is 100 pM. Also, in assay [1], the Kd worked out at 8460 pM, the off-rate (koff) amounted to 0.000724 s⁻¹ and the kon came out at 85600 M⁻¹ s⁻¹. The half-maximal effective concentration (EC50) in assay [2] was 100 pM.

B11: P6-D11 scFv clone (scFv, part only; not given: linker, domain order, tags, V domains shown, not shown: another chain or arm of the molecule; large carriers; small tags and cut ends)
VH: QVQLVQSGAEVKKPGASVKVSCKASGYTFTDYEMHWVRQAPGQGLEWMGALDPKTGDEAYSQKFKGRVTLTADKSTSTAYMELSSLTSEDTAVYYCTRFYSYTYWGQGTLVTVSS
VL: DVVMTQSPLSLPVTPGEPASISCRSEQSLVHSNGNTYLHWYLQKPGQSPQLLIYKVSNRFSGVPDRFSGSGSGTDFTLKISRVEAEDVGVYYCVQNGLFPPTFGQGTKLEIK
B11: the koff in assay [5] was found to be 0.000122 s⁻¹.

B12: P1-D6 scFv clone (scFv, part only; not given: linker, domain order, tags, V domains shown, not shown: another chain or arm of the molecule; large carriers; small tags and cut ends)
VH: QVQLVQSGAEVKNPGASVKVSCKASGYTFTDYEMHWVRQAPGQGLEWMGALDPFTGDTAYSQKFKGRVTLTADKSTSTAYMELSSLTSEDTAVYYCTRFYSYTYWGQGTLVTVSS
VL: DVVMTQSPLSLPVTPGEPASISCRSSQSLVHSNGNTYLHWYLQKPGQSPQLLIYKVSNRFSGVPDRFSGSGSGTDFTLKISRVEAEDVGVYYCLQNGYVPPTFGQGTKLEIK
Take B12: the koff in assay [5] is 0.000193 s⁻¹.

B13: P3-A1 IgG variant of ARD-103 (antibody, V domains shown)
VH: QVQLVESGAEVKKPGASVKVSCKASGYTFTDYEMHWVRQAPGQGLEWMGALDPSTGDTAYSQKFKGRVTLTADKSTSTAYMELSSLTSEDTAVYYCTRFYSYTYWGQGTLVTVSS
VL: DVVMTQSPLSLPVTPGEPASISCRSSQSLVHWNGNTYLHWYLQKPGQSPQLLIYKVSNRFSGVPDRFSGSGSGTDFTLKISRVEAEDVGVYYCAQNTHVPPTFGQGTKLEIKR
Take B13: in assay [1], the Kd was 2380 pM, the koff amounted to 0.000196 s⁻¹ and the kon is 82300 M⁻¹ s⁻¹.

B14: P1-D6 IgG variant of ARD-103 (antibody, V domains shown)
VH: QVQLVQSGAEVKNPGASVKVSCKASGYTFTDYEMHWVRQAPGQGLEWMGALDPFTGDTAYSQKFKGRVTLTADKSTSTAYMELSSLTSEDTAVYYCTRFYSYTYWGQGTLVTVSS
VL: DVVMTQSPLSLPVTPGEPASISCRSSQSLVHSNGNTYLHWYLQKPGQSPQLLIYKVSNRFSGVPDRFSGSGSGTDFTLKISRVEAEDVGVYYCLQNGYVPPTFGQGTKLEIKR
Turning to B14, the EC50 in assay [4] came to 100 pM. Further, in assay [1], the Kd is 3620 pM, the koff came out at 0.00033 s⁻¹ and the kon is 91300 M⁻¹ s⁻¹. In addition, in assay [2], the EC50 is 110 pM.

B15: P3-F7 scFv clone (scFv, part only; not given: linker, domain order, tags, V domains shown, not shown: another chain or arm of the molecule; small tags and cut ends)
VH: QVQLVESGAEVKKPGASVKVSCKASGYTFTDYEMHWVRQAPGQGLEWMGALDPKTGDTAYSQKFKGRVTLTADKSTSTAYMELSSLTSEDTAVYYCTRFYSYTYWGQGTLVTVSS
VL: DVVMTQSPLSLPVTPGEPASISCRSSQSLVHSNGNTYLQWYLQKPGQSPQLLIYKVSNRFSGVPDRFSGSGSGTDFTLKISRVEAEDVGVYYCVQVTHVPPTFGQGTKLEIK
Regarding B15, in assay [5], the dissociation rate constant (koff) came to 0.000319 s⁻¹.

B16: P1-B9 scFv clone (scFv, part only; not given: linker, domain order, tags, V domains shown, not shown: another chain or arm of the molecule; large carriers; small tags and cut ends)
VH: QVQLVESGAEVKKPGASVKVSCKASGYTFTDYEMHWVRQAPGQGLEWMGALDPKTGDTALSQKFKGRVTLTADKSTSTAYMELSSLTSEDTAVYYCTRFYSYTYWGQGTLVTVSS
VL: DVVMTQSPLSLPVTPGEPASISCRSSQSLVHSNGNTYLQWYLQKPGQSPQLLIYKVSNRFSGVPDRFSGSGSGTDFTLKISRVEAEDVGVYYCGQVTHVPPTFGQGTKLEIK
As to B16, the koff in assay [5] was found to be 0.00027 s⁻¹.

B17: P3-A1 scFv clone (scFv, part only; not given: linker, domain order, tags, V domains shown, not shown: another chain or arm of the molecule; large carriers; small tags and cut ends)
VH: QVQLVESGAEVKKPGASVKVSCKASGYTFTDYEMHWVRQAPGQGLEWMGALDPSTGDTAYSQKFKGRVTLTADKSTSTAYMELSSLTSEDTAVYYCTRFYSYTYWGQGTLVTVSS
VL: DVVMTQSPLSLPVTPGEPASISCRSSQSLVHWNGNTYLHWYLQKPGQSPQLLIYKVSNRFSGVPDRFSGSGSGTDFTLKISRVEAEDVGVYYCAQNTHVPPTFGQGTKLEIK
As to B17, the koff in assay [5] came out at 0.000304 s⁻¹.
